Source: US20190270826A1 (Janssen / Centocor, published 2019)

Key:
[1] = molecular target: T1, recombinant human IL1RAP ECD (human, UniProt Q9NPH3 21-367); experiment: SPR, summary
T1 construct: His-tagged; also called hIL1RAP-ECD; rhuIL1RAP
T1 sequence: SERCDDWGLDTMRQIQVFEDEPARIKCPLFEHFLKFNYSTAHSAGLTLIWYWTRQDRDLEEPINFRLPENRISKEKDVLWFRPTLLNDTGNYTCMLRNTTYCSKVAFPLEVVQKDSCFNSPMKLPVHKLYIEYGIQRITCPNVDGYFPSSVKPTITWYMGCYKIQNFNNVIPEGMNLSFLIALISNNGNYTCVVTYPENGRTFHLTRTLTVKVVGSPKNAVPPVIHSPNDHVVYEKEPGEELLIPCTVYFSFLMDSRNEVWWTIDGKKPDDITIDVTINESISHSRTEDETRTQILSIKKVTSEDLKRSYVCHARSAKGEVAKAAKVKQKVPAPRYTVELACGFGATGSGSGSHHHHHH

[2] = molecular target: T1, recombinant human IL1RAP ECD; experiment: SPR (ProteOn)
Procedure: The rates of IL1RAP ECD association and dissociation were measured for each variant. The biosensor surface was prepared by covalently coupling Goat anti-Human IgG (Fc) to the surface of a GLC chip (BioRad) using the manufacturer instructions for amine-coupling chemistry. […] The RU immobilized also included a goat anti-mouse Fc antibody that was added to capture other antibodies not included in the ones reported here. Since the mixture was 1:1 about 50% of these RU immobilized are expected to be goat anti-human Fc. The kinetic experiments were performed at 25° C. in running buffer (PBS pH 7.4, 0.005% P20, 3 mM EDTA). […] (1:3) serial dilutions of human IL1RAP ECD, starting at 400 nM were prepared in running buffer. […] The reference spots (Goat anti-Human IgG (Fc)-modified surface) containing no candidate captured were used as a reference surface. Capture of mAb was followed by a 3 minute injection (association phase) of antigen at 40 μL/min, followed by 10 minutes of buffer flow (dissociation phase). […] Data was processed on the instrument software. Double reference subtraction of the data was performed by subtracting the curves generated by buffer injection from the reference-subtracted curves for analyte injections. Kinetic analysis of the data was performed using 1:1 Langmuir binding model with group fit.

[3] = molecular target: T2, recombinant cyno IL1RAP ECD (cynomolgus monkey, UniProt P59822 21-367 (rhesus entry)); experiment: recombinant protein
T2 construct: also called rcynoIL1RAP
T2 sequence: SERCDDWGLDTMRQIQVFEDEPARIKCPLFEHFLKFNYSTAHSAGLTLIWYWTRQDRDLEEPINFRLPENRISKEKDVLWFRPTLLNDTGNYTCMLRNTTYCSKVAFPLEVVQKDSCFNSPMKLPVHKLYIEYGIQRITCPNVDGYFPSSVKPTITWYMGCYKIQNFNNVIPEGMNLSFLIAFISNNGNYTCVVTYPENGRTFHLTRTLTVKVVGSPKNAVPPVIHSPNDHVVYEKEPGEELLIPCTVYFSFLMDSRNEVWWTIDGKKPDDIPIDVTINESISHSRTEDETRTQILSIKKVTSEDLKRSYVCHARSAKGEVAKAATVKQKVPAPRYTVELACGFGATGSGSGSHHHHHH

[4] = molecular target: T3, cyno IL1RAP ECD displayed on HEK-293F cells (pDisplay) (cynomolgus monkey, UniProt P59822 21-367 (rhesus entry)); experiment: HEK-293F cells (MSD)
T3 sequence: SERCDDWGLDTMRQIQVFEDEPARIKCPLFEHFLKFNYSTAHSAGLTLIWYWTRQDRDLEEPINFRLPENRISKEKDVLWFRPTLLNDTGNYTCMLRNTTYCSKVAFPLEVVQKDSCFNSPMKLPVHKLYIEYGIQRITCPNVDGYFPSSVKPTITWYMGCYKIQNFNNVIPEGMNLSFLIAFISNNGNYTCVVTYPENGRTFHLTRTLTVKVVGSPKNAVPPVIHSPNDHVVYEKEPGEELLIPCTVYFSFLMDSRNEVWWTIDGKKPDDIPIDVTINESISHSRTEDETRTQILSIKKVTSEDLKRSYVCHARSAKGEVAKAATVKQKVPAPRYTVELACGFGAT

[5] = molecular target: T4, mouse IL1RAP ECD displayed on HEK-293F cells (pDisplay) (mouse, UniProt Q61730 21-367); experiment: HEK-293F cells (MSD)
T4 sequence: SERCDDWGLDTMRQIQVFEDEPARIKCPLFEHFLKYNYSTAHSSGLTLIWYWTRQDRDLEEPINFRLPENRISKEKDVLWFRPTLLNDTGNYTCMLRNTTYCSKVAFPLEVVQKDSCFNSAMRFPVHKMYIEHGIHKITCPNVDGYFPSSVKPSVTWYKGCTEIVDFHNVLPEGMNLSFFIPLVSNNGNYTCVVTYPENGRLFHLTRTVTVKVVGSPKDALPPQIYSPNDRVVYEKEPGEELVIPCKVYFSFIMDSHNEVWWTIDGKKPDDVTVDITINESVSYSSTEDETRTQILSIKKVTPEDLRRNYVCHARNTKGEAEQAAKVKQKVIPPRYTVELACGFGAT

[6] = molecular target: T5, rat IL1RAP ECD displayed on HEK-293F cells (pDisplay) (rat, UniProt Q63621 21-367); experiment: HEK-293F cells (MSD)
T5 sequence: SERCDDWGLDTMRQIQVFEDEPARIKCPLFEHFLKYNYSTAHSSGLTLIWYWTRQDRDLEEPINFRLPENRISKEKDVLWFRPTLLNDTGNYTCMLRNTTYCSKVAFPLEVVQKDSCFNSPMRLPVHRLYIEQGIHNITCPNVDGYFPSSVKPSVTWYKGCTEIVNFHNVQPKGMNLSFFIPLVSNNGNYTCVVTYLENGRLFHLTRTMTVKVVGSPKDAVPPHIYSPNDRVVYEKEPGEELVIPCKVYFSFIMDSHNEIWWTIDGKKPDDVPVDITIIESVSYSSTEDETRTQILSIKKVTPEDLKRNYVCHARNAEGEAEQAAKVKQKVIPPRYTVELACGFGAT

[7] = molecular target: T6, human FcRn (human, UniProt P55899 24-297; P61769 21-119, limits assumed); experiment: AlphaScreen competition, human FcRn (n=1); displaced: biotinylated control mAb B21M WT IgG1 (m27); pH 6.0
T6 construct: GST-tagged
Text: (§1) Measurements were made using an AlphaScreen™ assay (Amplified Luminescent Proximity Homogeneous Assay (ALPHA), PerkinElmer, Wellesley, Mass.), a bead-based luminescent proximity assay. Laser excitation of a donor bead excites oxygen, which if sufficiently close to the acceptor bead generates a cascade of chemiluminescent events, ultimately leading to fluorescence emission at 520-620 nm.

[8] = molecular target: T7, human FcγRIIb (human, UniProt P31994 43-217, limits assumed); experiment: AlphaScreen competition, human FcγRIIb (n=1); displaced: biotinylated control mAb B21M hIgG1 WT; pH 7.2
T7 construct: GST-tagged
T7 sequence (looked up): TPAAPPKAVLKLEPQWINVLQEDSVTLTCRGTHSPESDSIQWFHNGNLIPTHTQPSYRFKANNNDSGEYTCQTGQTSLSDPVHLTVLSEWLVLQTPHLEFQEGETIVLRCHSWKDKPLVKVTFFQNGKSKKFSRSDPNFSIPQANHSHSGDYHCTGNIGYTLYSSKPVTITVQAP
Text: as §1

[9] = molecular target: T8, human FcγRI (human, UniProt P12314 16-292, limits assumed); experiment: AlphaScreen competition, human FcγRI (n=1); displaced: biotinylated control mAb B21M hIgG1 AlaAla; pH 7.2
T8 construct: GST-tagged, on glutathione acceptor beads; also called FcγRT [sic]
Text: as §1

B1: IAPB03 (antibody, human IgG4 S228P, kappa, F234A L235A, V domains shown)
VH: QVQLVQSGAEVKKPGSSVKVSCKASGGTFSSYAISWVRQAPGQGLEWMGGISAIFGTANYAQKFQGRVTITADESTSTAYMELSSLRSEDTAVYYCARGNSFHALWDYAFDYWGQGTLVTVSS
VL: not shown
notes: IgG4-PAA; the entries called VH/VL are whole chains; also called IAPB3
[1]
  Kd: 2.64 nM
[2]
  Kd: 2.64 nM
  koff: 0.000357 s⁻¹
  kon: 135000 M⁻¹ s⁻¹
[3]
  binding result: binds
[4]
  binding result: binds

B2: IAPB09 (antibody, human IgG4 S228P, kappa, F234A L235A, V domains shown)
VH: QVQLVQSGAEVKKPGSSVKVSCKASGGTFSSYAISWVRQAPGQGLEWMGWISPIFGTANYAQKFQGRVTITADESTSTAYMELSSLRSEDTAVYYCARRYDNFARSGDLDYWGQGTLVTVSS
VL: not shown
notes: IgG4-PAA; whole chains; also called IAPB9
[1]
  Kd: 6.59 nM
[2]
  Kd: 6.59 nM
  koff: 0.00379 s⁻¹
  kon: 574000 M⁻¹ s⁻¹
[3]
  binding result: binds
[4]
  binding result: binds
[5]
  binding result: binds
[6]
  binding result: binds

B3: IAPB47 (antibody, human IgG4 S228P, kappa, F234A L235A, V domains shown)
VH: EVQLVQSGAEVKKPGESLKISCKGSGYSFTSYWIGWVRQMPGKGLEWMGIIYPSDSYTRYSPSFQGQVTISADKSISTAYLQWSSLKASDTAMYYCARRNSAENYADLDYWGQGTLVTVSS
VL: EIVLTQSPGTLSLSPGERATLSCRASQSISNDLNWYQQKPGKAPKLLIYYASSLQSGVPSRFSGSGSGTDFTLTINSLQPEDFATYYCQQSFTAPLTFGQGTKVEIKR
notes: IgG4-PAA; whole chains
[1]
  Kd: 1.24 nM
[2]
  Kd: 1.24 nM
  koff: 0.000811 s⁻¹
  kon: 653000 M⁻¹ s⁻¹
[3]
  binding result: binds
[4]
  binding result: binds
[5]
  binding result: binds
[6]
  binding result: binds

B4: CD3B219 - CD3B219 Parental, IgG4 PAA (antibody)
heavy chain: EVQLVESGGGLVQPGGSLRLSCAASGFTFNTYAMNWVRQAPGKGLEWVARIRSKYNNYATYYAASVKGRFTISRDDSKNSLYLQMNSLKTEDTAVYYCARHGNFGNSYVSWFAYWGQGTLVTVSSASTKGPSVFPLAPCSRSTSESTAALGCLVKDYFPEPVTVSWNSGALTSGVHTFPAVLQSSGLYSLSSVVTVPSSSLGTKTYTCNVDHKPSNTKVDKRVESKYGPPCPPCPAPEAAGGPSVFLFPPKPKDTLMISRTPEVTCVVVDVSQEDPEVQFNWYVDGVEVHNAKTKPREEQFNSTYRVVSVLTVLHQDWLNGKEYKCKVSNKGLPSSIEKTISKAKGQPREPQVYTLPPSQEEMTKNQVSLTCLVKGFYPSDIAVEWESNGQPENNYKTTPPVLDSDGSFLLYSKLTVDKSRWQEGNVFSCSVMHEALHNHYTQKSLSLSLGK
light chain: QTVVTQEPSLTVSPGGTVTLTCRSSTGAVTTSNYANWVQQKPGQAPRGLIGGTNKRAPGTPARFSGSLLGGKAALTLSGVQPEDEAEYYCALWYSNLWVFGGGTKLTVLGQPKAAPSVTLFPPSSEELQANKATLVCLISDFYPGAVTVAWKADSSPVKAGVETTTPSKQSNNKYAASSYLSLTPEQWKSHRSYSCQVTHEGSTVEKTVAPTECS
[7]
  IC50 (read off the curve): ~200 nM
[8]
  binding result: binds
[9]
  IC50 (read off the curve): ~60 nM

B5: IAPB23 (antibody, human IgG4 S228P, kappa, F234A L235A, V domains shown)
VH: EVQLLESGGGLVQPGGSLRLSCAASGFTFSNYWMNWVRQAPGKGLEWVSAIRYDGGSKYYADSVKGRFTISRDNSKNTLYLQMNSLRAEDTAVYYCAKDAYPPYSFDYWGQGTLVTVSS
VL: EIVLTQSPATLSLSPGERATLSCRASQSVSSYLAWYQQKPGQAPRLLIYDASNRATGIPARFSGSGSGTDFTLTISSLEPEDFAVYYCQQRSNWPLTFGQGTKVEIKR
notes: IgG4-PAA; whole chains
[1]
  Kd: 4.7 nM
[2]
  Kd: 4.7 nM
  koff: 0.00149 s⁻¹
  kon: 317000 M⁻¹ s⁻¹
[3]
  binding result: binds
[4]
  binding result: binds

B6: IAPB57 (antibody, human IgG4 S228P, kappa, F234A L235A)
heavy: not shown
light: DIQLTQSPSFLSASVGDRVTITCRASQGISSYLAWYQQKPGKAPKLLIYAASTLQSGVPSRFSGSGSGTEFTLTISSLQPEDFATYYCQQVNSYPLTFGGGTKVEIKRTVAAPSVFIFPPSDEQLKSGTASVVCLLNNFYPREAKVQWKVDNALQSGNSQESVTEQDSKDSTYSLSSTLTLSKADYEKHKVYACEVTHQGLSSPVTKSFNRGEC
notes: IgG4-PAA; whole chains
[1]
  Kd: 0.16 nM
[3]
  binding result: binds
[4]
  binding result: binds
[7]
  IC50 (read off the curve): ~200 nM
[8]
  binding result: binds
[9]
  IC50 (read off the curve): ~100 nM

B7: IAPB17 (antibody, human IgG4 S228P, kappa, F234A L235A, V domains shown)
VH: QVQLVQSGAEVKKPGSSVKVSCKASGGTFSSYAISWVRQAPGQGLEWMGGIIPIFGNANYAQKFQGRVTITADESTSTAYMELSSLRSEDTAVYYCARTIIYLDYVHILDYWGQGTLVTVSS
VL: not shown
notes: IgG4-PAA; whole chains
[1]
  Kd: 8.51 nM
[2]
  Kd: 8.51 nM
  koff: 0.00719 s⁻¹
  kon: 844000 M⁻¹ s⁻¹
[3]
  binding result: binds
[4]
  binding result: binds
[5]
  binding result: binds
[6]
  binding result: binds
